Test results: patent US20190300590A1 (PROTAGONIST THERAPEUTICS, published 2019)
Bridges are numbered along the chain shown (N, C = ends). [ ]: non-standard residue; d: D form. The star is where a group is joined. 1Nal = N[C@@H](Cc1cccc2ccccc12)C(=O)O; Palmitoyl = CCCCCCCCCCCCCCCC(=O)*; NMeQ = CN[C@@H](CCC(N)=O)C(=O)O; Cit = NC(=O)NCCC[C@H](N)C(=O)O; AEA = NCCOCC(=O)O; βAla = NCCC(=O)O

B1: [Ac-[Pen]-NTWQ-[Pen]-[Phe(4-OMe)]-[2-Nal]-[α-MeLeu]-KNN-NH2]2DIG (peptide)
peptide: XNTWQXFXLKNN
modifications: Ac; Pen-Pen disulfide; Phe(4-OMe); 2-Nal; α-MeLeu; NH2; DIG linker joins the two subunits

Biological target: T1, IL23R_huFC (human, UniProt Q5VWK5 24-353)
T1 sequence (looked up): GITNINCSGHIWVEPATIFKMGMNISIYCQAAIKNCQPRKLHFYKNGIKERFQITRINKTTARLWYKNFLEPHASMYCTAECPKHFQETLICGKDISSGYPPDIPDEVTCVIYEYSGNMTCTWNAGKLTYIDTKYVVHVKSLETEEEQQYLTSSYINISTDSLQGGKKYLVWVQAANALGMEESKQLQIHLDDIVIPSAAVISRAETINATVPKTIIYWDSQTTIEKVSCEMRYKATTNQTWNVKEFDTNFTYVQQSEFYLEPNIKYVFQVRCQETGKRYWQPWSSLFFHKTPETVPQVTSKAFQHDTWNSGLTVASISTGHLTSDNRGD
Experiment: IL23-IL23R competitive ELISA

First: CADWVCYFXXFGXK (not fully specified; Ac-; [Phe(CONH2)]; [Orn]; [Dap]; [AEA]; [(D)Lys]; -NH2) [Ac-CADWVCY-[Phe(CONH2)]-[Orn]-[Dap]-FG-[AEA]-[(D)Lys]-NH2]
Second: CADWVCYFXXFGXK (not fully specified; Ac-; [hPhe]; [Orn]; [Dap]; [AEA]; [(D)Lys]; -NH2) [Ac-CADWVCY-[hPhe]-[Orn]-[Dap]-FG-[AEA]-[(D)Lys]-NH2]
The IC50 of the first is 5-fold lower: about 6000 nM for the first, 30000 nM for the second.

Biological target: T2, Rat IL-23R_huFC (rat; human, UniProt F1LX96 39-369)
T2 sequence: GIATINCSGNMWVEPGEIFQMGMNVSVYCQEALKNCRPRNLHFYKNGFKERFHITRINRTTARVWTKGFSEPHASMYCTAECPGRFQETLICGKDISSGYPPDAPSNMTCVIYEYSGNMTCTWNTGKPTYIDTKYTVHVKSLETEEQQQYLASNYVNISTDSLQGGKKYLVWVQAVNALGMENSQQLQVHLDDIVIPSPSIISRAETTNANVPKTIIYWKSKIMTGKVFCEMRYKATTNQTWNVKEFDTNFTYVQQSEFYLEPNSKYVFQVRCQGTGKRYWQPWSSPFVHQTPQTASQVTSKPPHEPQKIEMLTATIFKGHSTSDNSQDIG
Experiment: rat IL-23R competitive ELISA

Going from Ac-CADWVCYWRKFG[βAla][dK]-NH2 (cysteine pairing not given here) [Ac-CADWVCYWRKFG-[βAla]-[(D)Lys]-NH2] to Ac-C[NMeQ]TWQCYWRVFG[AEA][dK]-NH2 (disulfide 1-6 (inferred)) [Ac-C-[N-MeQln]-TWQCYWRVFG-[AEA]-[(D)Lys]-NH2], the IC50 rises from 33 nM to 85 nM (2.6-fold). The first is the more potent here.

Ac-CNTWQCYWRVFG[AEA][dK]-NH2 (disulfide 1-6 (inferred)) [Ac-CNTWQCYWRVFG-[AEA]-[(D)Lys]-NH2] and Ac-CQTWQCYWRVFG[AEA][dK]-NH2 (disulfide 1-6 (inferred)) [Ac-CQTWQCYWRVFG-[AEA]-[(D)Lys]-NH2] are within 1.5-fold of each other in IC50: 79 nM for the first, 62 nM for the second.

Going from CRTWQCYWRVFGXK (not fully specified; Ac-; [N-MeArg]; [AEA]; [(D)Lys]; -NH2) [Ac-C-[N-MeArg]-TWQCYWRVFG-[AEA]-[(D)Lys]-NH2] to CXTWQCYWRVFGXK (Ac-; [AEA]; [(D)Lys]; -NH2) [Ac-C-CYWRVFG-[AEA]-[(D)Lys]-NH2, listing 1 of 2 here], the IC50 falls from 192 nM to 100 nM (1.9-fold).

First: CXTWQCYWRVFGXK (Ac-; [AEA]; [(D)Lys]; -NH2) [Ac-C-CYWRVFG-[AEA]-[(D)Lys]-NH2, listing 2 of 2 here]
Second: Ac-CRTWQCYWRENGA[dK]-NH2 (cysteine pairing not given here) [Ac-CRTWQCYWRENGA-[(D)Lys]-NH2]
The IC50 of the first is 1.7-fold lower: 51 nM for the first, 86 nM for the second.

Ac-CRTWQCYWREYGA[dK]-NH2 (cysteine pairing not given here) [Ac-CRTWQCYWREYGA-[(D)Lys]-NH2] and CXTWQCYWRVFGXK (Ac-; [Cit]; [AEA]; [(D)Lys]; -NH2) [Ac-C-[Cit]-TWQCYWRVFG-[AEA]-[(D)Lys]-NH2] are within 1.5-fold of each other in IC50: 80 nM for the first, 76 nM for the second.

Ac-CADWVCY[1Nal][Cit]VFG[βAla][dK]-NH2 (disulfide 1-6 (inferred)) [Ac-CADWVCY-[1-Nal]-[Cit]-VFG-[β-Ala]-[(D)Lys]-NH2] was tested, and the IC50 was 22 nM.

Biological target: T3, IL-23R on DB cells (human, UniProt Q5VWK5 24-629)
T3 sequence (looked up): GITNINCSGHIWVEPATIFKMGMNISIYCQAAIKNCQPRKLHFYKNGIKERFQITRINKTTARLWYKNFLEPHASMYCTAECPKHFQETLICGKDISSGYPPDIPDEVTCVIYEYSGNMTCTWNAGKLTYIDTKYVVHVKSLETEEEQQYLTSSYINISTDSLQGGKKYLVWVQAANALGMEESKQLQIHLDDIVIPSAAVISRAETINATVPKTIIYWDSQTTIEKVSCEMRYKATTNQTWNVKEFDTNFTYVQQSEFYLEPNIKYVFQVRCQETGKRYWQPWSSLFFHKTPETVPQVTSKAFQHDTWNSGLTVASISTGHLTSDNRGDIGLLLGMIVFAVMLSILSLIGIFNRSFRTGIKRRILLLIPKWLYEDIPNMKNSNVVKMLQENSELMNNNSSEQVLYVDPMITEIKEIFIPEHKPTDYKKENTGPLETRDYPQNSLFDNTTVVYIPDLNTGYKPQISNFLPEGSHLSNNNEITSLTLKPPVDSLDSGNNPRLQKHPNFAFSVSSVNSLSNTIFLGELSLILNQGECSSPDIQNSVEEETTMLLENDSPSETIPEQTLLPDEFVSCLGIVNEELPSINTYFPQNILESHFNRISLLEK
Experiment: cell-based or functional assay

For B1, the “pStat3 HTRF IC50” value was under 10 nM.

Biological target: T4, IL23R_huFC (human, UniProt Q5VWK5 24-353)
T4 sequence (looked up): T1 sequence (looked up)
Experiment: IL23-IL23R competitive binding ELISA

First: CQTWQCXWXENG (not fully specified; Ac; X7 = Cha; X9 = hLeu; NH2) [Ac-CQTWQC-[Cha]-W-[hLeu]-ENG-NH2]
Second: Ac-CQTWQCYW[dL]ENG-NH2 (cysteine pairing not given here) [Ac-CQTWQCYW-[(D)Leu]-ENG-NH2]
The IC50 of the first is 19-fold higher: about 6000 nM for the first, 319 nM for the second.

Compared with Ac-CQTWQCYWK(Palmitoyl)ENG-NH2 (cysteine pairing not given here) [Ac-CQTWQCYW-[K(Palm)]-ENG-NH2], CQTWQCYWXLNG (Ac; Z as printed (not explained); NH2) [Ac-CQTWQCYWZ-LNG-NH2] is 6.1-fold lower in IC50: 4880 nM for the first, 800 nM for the second.
